Experimental data reported in publication doi:10.1101/2020.02.12.946020.

Target: hMutLγ (MLH1-MLH3) (human, UniProt P40692;Q9UHC1 1-756;1-1453)
Assay: EMSA

hMutLγ (MLH1-MLH3), sequence (P40692 whole entry, chain 1 of 2): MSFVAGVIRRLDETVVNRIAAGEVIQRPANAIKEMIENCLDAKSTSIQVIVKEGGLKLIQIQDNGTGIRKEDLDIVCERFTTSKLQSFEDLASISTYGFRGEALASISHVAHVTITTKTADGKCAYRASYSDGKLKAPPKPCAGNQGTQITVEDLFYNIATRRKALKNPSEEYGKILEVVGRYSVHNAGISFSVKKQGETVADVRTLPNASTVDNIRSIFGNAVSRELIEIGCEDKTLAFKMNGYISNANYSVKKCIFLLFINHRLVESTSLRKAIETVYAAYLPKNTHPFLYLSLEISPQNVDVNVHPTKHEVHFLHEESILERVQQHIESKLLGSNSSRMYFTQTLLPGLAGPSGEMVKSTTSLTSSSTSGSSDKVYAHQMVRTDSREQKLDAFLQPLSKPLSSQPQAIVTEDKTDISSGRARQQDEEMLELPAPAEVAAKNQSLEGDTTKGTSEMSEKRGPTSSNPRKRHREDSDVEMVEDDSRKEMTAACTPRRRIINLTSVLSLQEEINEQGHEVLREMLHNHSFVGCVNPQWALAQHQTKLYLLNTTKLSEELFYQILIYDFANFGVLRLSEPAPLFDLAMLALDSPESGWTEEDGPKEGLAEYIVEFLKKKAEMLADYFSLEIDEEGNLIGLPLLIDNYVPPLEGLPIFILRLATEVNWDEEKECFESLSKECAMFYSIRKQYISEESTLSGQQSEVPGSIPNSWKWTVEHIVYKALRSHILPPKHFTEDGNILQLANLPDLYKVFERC
hMutLγ (MLH1-MLH3), sequence (Q9UHC1 whole entry, chain 2 of 2): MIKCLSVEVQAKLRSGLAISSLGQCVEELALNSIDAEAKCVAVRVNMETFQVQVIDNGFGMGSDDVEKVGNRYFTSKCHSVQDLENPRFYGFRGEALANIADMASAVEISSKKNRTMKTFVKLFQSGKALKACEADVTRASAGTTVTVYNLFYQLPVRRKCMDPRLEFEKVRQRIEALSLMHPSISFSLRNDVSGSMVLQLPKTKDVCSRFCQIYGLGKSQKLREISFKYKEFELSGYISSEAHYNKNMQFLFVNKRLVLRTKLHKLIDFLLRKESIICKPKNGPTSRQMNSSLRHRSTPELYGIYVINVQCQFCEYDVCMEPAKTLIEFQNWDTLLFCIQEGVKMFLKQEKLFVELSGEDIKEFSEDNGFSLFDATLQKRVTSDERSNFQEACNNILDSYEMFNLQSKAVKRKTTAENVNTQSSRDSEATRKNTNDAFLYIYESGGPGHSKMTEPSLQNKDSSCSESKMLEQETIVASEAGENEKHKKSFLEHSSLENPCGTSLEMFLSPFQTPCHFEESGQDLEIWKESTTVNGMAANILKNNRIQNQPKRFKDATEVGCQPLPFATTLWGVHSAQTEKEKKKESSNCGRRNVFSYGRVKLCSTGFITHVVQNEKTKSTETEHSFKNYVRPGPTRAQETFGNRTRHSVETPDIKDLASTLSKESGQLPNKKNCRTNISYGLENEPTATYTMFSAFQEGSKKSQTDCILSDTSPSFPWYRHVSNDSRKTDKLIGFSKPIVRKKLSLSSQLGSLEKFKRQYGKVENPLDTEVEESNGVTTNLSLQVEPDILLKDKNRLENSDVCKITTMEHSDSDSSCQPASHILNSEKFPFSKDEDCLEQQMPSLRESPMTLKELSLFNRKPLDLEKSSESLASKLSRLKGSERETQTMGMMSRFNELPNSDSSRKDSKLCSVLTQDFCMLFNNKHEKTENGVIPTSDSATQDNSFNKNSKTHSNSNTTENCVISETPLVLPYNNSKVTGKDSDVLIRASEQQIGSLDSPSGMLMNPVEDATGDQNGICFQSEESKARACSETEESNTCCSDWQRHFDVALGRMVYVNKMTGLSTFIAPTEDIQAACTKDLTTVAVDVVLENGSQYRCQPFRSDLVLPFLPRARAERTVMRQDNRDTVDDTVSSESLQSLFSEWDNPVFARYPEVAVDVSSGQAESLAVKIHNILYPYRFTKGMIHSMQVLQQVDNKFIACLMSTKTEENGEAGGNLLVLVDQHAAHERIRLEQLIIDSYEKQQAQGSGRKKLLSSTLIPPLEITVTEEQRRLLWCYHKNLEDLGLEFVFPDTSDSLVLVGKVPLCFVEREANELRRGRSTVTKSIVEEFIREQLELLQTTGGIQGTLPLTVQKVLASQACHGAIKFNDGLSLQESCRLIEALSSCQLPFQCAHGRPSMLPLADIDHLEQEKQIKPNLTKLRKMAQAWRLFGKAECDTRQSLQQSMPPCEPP

TTTTTTTTTTTTTTTTTTTTTTTTTTTTTTTTTTTTTTTT (ssDNA) [40 nt poly-dT ssDNA (dT40)]
binding result: binds
